Data as given in patent publication US20180256699A1 (University of Texas, published 2018).

Tests used:
Test in all cases: ELISA, murine αMβ2 integrin coated, domain serially diluted
[1] = molecular target: CAT400, catalytic domain of ACT, residues 1-400 (Bordetella pertussis, UniProt J7QLC0 1-400)
Protocol: (§1) To assess non-specific binding, control wells were not coated with αMβ₂ receptor but blocked with M-PBST only.
(§2) Recombinant murine αMβ₂ integrin (R&D Systems) was coated at 1 μg/mL in PBS at 4° C. overnight, and blocked with M-PBST.

[2] = molecular target: HP1096, hydrophobic domain of ACT, residues 399-1096, MBP fusion, non-acylated (Bordetella pertussis, UniProt J7QLC0 399-1096)
Protocol: as §1, §2

[3] = molecular target: HP1096*, hydrophobic domain of ACT, residues 399-1096, MBP fusion, acylated (Bordetella pertussis, UniProt J7QLC0 399-1096)
Protocol: as §1, §2

[4] = molecular target: RTX985, RTX domain of ACT, residues 985-1706 (Bordetella pertussis, UniProt J7QLC0 985-1706)
Protocol: as §1, §2

Measured: binding result

B1: Recombinant soluble murine αMβ2 integrin (R&D Systems) (receptor)
chain 1: FNLDTEHPMTFQENAKGFGQNVVQLGGTSVVVAAPQEAKAVNQTGALYQCDYSTSRCHPIPLQVPPEAVNMSLGLSLAVSTVPQQLLACGPTVHQNCKENTYVNGLCYLFGSNLLRPPQQFPEALRECPQQESDIVFLIDGSGSINNIDFQKMKEFVSTVMEQFKKSKTLFSLMQYSDEFRIHFTFNDFKRNPSPRSHVSPIKQLNGRTKTASGIRKVVRELFHKTNGARENAAKILVVITDGEKFGDPLDYKDVIPEADRAGVIRYVIGVGNAFNKPQSRRELDTIASKPAGEHVFQVDNFEALNTIQNQLQEKIFAIEGTQTGSTSSFEHEMSQEGFSASITSNGPLLGSVGSFDWAGGAFLYTSKDKVTFINTTRVDSDMNDAYLGYASAVILRNRVQSLVLGAPRYQHIGLVVMFRENFGTWEPHTSIKGSQIGSYFGASLCSVDMDADGNTNLILIGAPHYYEKTRGGQVSVCPLPRGRARWQCEALLHGDQGHPWGRFGAALTVLGDVNGDKLTDVAIGAPGEQENQGAVYIFYGASIASLSASHSHRIIGAHFSPGLQYFGQSLSGGKDLTMDGLMDLAVGAQGHLLLLRAQPVLRLEATMEFSPKKVARSVFACQEQVLKNKDAGEVRVCLRVRKNTKDRLREGDIQSTVTYDLALDPVRSRIRAFFDETKNNTRRRTQVFGLMQKCETLKLILPDCVDDSVSPIILRLNYTLVGEPLRSFGNLRPVLAMDAQRFFTAMFPFEKNCGNDSICQDDLSITMSAMGLDTLVVGGPQDFNMSVTLRNDGEDSYGTQVTVYYPSGLSYRKDSASQNPLTKKPWFVKPAESSSSSEGHGALKSTTWNINHPIFPANSEVTFNVTFDVDSHASFGNKLLLKAIVASENNMSRTHKTKFQLELPVKYAIYMIVTSDESSIRYLNFTASEMTSKVIQHQYQFNNLGQRSLPVSVVFWIPVQINNVTVWDHPQVIFSQNLSSACHTEQKSPPHSNFRDQLERTPVLNCSVAVCKRIQCDLPSFNTQEIFNVTLKGNLSFDWYIKTSHGHLLLVSSTEILFNDSAFALLPGQESYVRSKTETKVEPYEVHN
chain 2: QECTKYKVSSCRDCIQSGPGCSWCQKLNFTGPGEPDSLRCDTRAQLLLKGCPADDIMDPRSIANPEFDQRGQRKQLSPQKVTLYLRPGQAAAFNVTFRRAKGYPIDLYYLMDLSYSMLDDLNNVKKLGGDLLQALNEITESGRIGFGSFVDKTVLPFVNTHPEKLRNPCPNKEKACQPPFAFRHVLKLTDNSNQFQTEVGKQLISGNLDAPEGGLDAIMQVAACPEEIGWRNVTRLLVFATDDGFHFAGDGKLGAILTPNDGRCHLEDNMYKRSNEFDYPSVGQLAHKLSESNIQPIFAVTKKMVKTYEKLTEIIPKSAVGELSDDSSNVVQLIKNAYYKLSSRVFLDHSTLPDTLKVTYDSFCSNGASSIGKSRGDCDGVQINNPVTFQVKVMASECIQEQSFVIRALGFTDTVTVQVRPQCECQCRDQSREQSLCGGKGVMECGICRCESGYIGKNCECQTQGRSSQELERNCRKDNSSIVCSGLGDCICGQCVCHTSDVPNKEIFGQYCECDNVNCERYNSQVCGGSDRGSCNCGKCSCKPGYEGSACQCQRSTTGCLNARLVECSGRGHCQCNRCICDEGYQPPMCEDCPSCGSHCRDNHTSCAECLKFDKGPFEKNCSVQCAGMTLQTIPLKKKPCKERDSEGCWITYTLQQKDGRNIYNIHVEDSLECVKGPN
notes: extracellular domain; also called αMβ2 receptor; soluble αMβ2 integrin
no binding: all assays above
